Test results published in paper PMC12343972 (Nature Communications, 2025).

How the values were obtained:
[1] = molecular target: Rad50 E1235Q (MREQ complex);Mre11 (Saccharomyces cerevisiae;Saccharomyces …, UniProt P12753;P32829 1-1312;1-692, E1235Q|); assay: cryo-EM 3.2 A
[2] = molecular target: T1, S. cerevisiae Rad50-E1235Q (S. cerevisiae, UniProt P12753, E1235Q); assay: cryo-EM structure
T1 sequence: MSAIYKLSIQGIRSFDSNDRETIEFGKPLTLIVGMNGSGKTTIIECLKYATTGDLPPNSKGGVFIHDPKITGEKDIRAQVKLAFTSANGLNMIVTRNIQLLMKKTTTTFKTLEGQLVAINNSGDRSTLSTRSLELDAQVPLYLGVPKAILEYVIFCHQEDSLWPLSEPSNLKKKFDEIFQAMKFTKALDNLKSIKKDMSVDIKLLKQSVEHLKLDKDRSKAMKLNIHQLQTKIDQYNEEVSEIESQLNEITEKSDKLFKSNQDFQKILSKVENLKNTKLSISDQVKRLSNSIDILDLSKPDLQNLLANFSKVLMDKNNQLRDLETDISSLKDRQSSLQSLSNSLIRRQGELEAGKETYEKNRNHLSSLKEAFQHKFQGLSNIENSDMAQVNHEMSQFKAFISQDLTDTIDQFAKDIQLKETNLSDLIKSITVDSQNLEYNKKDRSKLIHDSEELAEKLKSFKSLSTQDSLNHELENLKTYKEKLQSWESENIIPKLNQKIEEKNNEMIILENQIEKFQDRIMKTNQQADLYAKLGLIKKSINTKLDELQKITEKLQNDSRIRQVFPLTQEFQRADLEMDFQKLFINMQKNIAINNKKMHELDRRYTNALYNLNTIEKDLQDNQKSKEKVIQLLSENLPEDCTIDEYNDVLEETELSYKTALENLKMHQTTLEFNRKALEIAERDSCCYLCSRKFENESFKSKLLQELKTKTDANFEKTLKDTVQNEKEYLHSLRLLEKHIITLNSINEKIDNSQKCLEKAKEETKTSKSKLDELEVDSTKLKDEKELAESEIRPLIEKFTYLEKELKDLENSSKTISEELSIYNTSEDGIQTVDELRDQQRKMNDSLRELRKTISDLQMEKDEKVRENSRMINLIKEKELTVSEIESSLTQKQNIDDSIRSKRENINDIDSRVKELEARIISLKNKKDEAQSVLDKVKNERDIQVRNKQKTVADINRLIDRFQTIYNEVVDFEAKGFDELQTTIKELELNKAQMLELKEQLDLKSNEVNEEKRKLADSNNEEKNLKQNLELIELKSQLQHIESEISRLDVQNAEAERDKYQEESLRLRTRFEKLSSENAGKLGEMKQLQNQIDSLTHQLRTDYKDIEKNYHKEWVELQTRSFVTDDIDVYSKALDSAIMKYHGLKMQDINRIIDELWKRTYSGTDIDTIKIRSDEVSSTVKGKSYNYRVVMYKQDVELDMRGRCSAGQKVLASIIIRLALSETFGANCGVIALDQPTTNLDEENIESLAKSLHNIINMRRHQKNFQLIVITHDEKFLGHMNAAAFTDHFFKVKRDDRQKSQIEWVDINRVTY

B1: 83-mer dsDNA (cryo-EM) (dsDNA)
DNA 1: TTGATAAGAGGTCATTTTTGCGGATGGCTTAGAGCTTAATTGCTGAATCTGGTGCTGTAGCTCAACATGTTTTAAATATGCAA
DNA 2: TTGCATATTTAAAACATGTTGAGCTACAGCACCAGATTCAGCAATTAAGCTCTAAGCCATCCGCAAAAATGACCTCTTATCAA
binding result [1]: binds

B2: S. cerevisiae Mre11 with a C-terminal 1xFLAG tag (natural protein)
chain: MDYPDPDTIRILITTDNHVGYNENDPITGDDSWKTFHEVMMLAKNNNVDMVVQSGDLFHVNKPSKKSLYQVLKTLRLCCMGDKPCELELLSDPSQVFHYDEFTNVNYEDPNFNISIPVFGISGNHDDASGDSLLCPMDILHATGLINHFGKVIESDKIKVVPLLFQKGSTKLALYGLAAVRDERLFRTFKDGGVTFEVPTMREGEWFNLMCVHQNHTGHTNTAFLPEQFLPDFLDMVIWGHEHECIPNLVHNPIKNFDVLQPGSSVATSLCEAEAQPKYVFILDIKYGEAPKMTPIPLETIRTFKMKSISLQDVPHLRPHDKDATSKYLIEQVEEMIRDANEETKQKLADDGEGDMVAELPKPLIRLRVDYSAPSNTQSPIDYQVENPRRFSNRFVGRVANGNNVVQFYKKRSPVTRSKKSGINGTSISDRDVEKLFSESGGELEVQTLVNDLLNKMQLSLLPEVGLNEAVKKFVDKDEKTALKEFISHEISNEVGILSTNEEFLRTDDAEEMKALIKQVKRANSVRPTPPKENDETNFAFNGNGLDSFRSSNREVRTGSPDITQSHVDNESRITHISQAESSKPTSKPKRVRTATKKKIPAFSDSTVISDAENELGDNNDAQDDVDIDENDIIMVSTDEEDASYGLLNGRKTKTKTRPAASTKTASRRGKGRASRTPKTDILGSLLAKKRK
binding result [2]: binds
